Data published in publication PMC4615246 (Nucleus, 2015).

T1: LacI-CFP-Nup107 (human, UniProt P57740 1-925)
T1 sequence: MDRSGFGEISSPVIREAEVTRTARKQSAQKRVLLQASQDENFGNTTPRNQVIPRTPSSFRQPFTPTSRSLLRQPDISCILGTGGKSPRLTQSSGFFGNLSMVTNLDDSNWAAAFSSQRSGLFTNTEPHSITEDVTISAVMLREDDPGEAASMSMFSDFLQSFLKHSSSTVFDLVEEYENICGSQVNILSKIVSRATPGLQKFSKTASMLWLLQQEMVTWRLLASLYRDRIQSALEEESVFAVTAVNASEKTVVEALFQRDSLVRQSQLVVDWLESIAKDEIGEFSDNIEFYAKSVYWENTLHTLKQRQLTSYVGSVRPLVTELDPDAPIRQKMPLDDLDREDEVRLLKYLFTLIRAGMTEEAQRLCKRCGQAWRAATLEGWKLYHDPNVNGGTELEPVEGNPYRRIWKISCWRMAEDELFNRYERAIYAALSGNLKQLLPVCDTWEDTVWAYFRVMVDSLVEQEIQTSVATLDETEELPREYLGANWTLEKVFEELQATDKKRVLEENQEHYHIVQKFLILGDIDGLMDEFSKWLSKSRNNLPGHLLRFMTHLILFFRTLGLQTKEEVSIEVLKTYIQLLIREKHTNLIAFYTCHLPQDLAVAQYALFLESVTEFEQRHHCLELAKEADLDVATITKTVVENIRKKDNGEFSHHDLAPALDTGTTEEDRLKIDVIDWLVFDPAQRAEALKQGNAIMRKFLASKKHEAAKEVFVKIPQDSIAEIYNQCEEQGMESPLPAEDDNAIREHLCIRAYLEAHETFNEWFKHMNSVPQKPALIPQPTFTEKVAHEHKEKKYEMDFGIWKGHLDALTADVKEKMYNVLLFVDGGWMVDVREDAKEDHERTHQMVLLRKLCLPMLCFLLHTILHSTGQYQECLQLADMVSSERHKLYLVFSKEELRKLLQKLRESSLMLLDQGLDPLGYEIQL

T2: LacI-CFP-Nup133 (human, UniProt Q8WUM0 1-1156)
T2 sequence: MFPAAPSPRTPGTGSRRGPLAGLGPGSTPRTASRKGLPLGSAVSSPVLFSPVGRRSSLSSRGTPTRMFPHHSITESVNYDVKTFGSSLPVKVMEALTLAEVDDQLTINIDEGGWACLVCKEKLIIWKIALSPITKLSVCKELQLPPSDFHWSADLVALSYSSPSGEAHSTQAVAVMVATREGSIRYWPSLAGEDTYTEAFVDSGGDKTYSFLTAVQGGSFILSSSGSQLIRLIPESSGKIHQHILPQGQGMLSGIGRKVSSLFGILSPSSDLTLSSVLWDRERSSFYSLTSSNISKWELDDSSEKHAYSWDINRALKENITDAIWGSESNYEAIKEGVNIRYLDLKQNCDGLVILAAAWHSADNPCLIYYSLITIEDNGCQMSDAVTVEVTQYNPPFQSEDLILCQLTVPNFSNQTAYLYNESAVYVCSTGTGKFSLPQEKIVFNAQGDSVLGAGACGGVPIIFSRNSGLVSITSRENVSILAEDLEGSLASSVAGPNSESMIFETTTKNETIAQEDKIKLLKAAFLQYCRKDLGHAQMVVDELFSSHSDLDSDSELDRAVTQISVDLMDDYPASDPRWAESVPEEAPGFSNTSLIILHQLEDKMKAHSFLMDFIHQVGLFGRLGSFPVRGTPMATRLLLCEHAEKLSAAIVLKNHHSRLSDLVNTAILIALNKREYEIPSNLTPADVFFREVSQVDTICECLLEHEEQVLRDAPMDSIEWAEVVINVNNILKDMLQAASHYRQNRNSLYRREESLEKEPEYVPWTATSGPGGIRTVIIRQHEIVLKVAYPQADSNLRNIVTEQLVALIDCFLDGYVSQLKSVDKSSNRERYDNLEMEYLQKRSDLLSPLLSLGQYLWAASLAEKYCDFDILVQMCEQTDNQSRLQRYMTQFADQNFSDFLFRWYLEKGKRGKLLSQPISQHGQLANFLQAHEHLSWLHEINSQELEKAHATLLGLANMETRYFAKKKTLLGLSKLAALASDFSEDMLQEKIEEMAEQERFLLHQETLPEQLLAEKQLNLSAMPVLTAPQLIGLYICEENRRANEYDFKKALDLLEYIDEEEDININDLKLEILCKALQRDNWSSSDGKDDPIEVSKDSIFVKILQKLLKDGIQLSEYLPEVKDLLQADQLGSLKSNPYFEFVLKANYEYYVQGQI

B1: Nup160 (endogenous) (natural protein)
chain: MLHLSAAPPAPPPEVTATARPCLCSVGRRGDGGKMAAAGALERSFVELSGAERERPRHFREFTVCSIGTANAVAGAVKYSESAGGFYYVESGKLFSVTRNRFIHWKTSGDTLELMEESLDINLLNNAIRLKFQNCSVLPGGVYVSETQNRVIILMLTNQTVHRLLLPHPSRMYRSELVVDSQMQSIFTDIGKVDFTDPCNYQLIPAVPGISPNSTASTAWLSSDGEALFALPCASGGIFVLKLPPYDIPGMVSVVELKQSSVMQRLLTGWMPTAIRGDQSPSDRPLSLAVHCVEHDAFIFALCQDHKLRMWSYKEQMCLMVADMLEYVPVKKDLRLTAGTGHKLRLAYSPTMGLYLGIYMHAPKRGQFCIFQLVSTESNRYSLDHISSLFTSQETLIDFALTSTDIWALWHDAENQTVVKYINFEHNVAGQWNPVFMQPLPEEEIVIRDDQDPREMYLQSLFTPGQFTNEALCKALQIFCRGTERNLDLSWSELKKEVTLAVENELQGSVTEYEFSQEEFRNLQQEFWCKFYACCLQYQEALSHPLALHLNPHTNMVCLLKKGYLSFLIPSSLVDHLYLLPYENLLTEDETTISDDVDIARDVICLIKCLRLIEESVTVDMSVIMEMSCYNLQSPEKAAEQILEDMITIDVENVMEDICSKLQEIRNPIHAIGLLIREMDYETEVEMEKGFNPAQPLNIRMNLTQLYGSNTAGYIVCRGVHKIASTRFLICRDLLILQQLLMRLGDAVIWGTGQLFQAQQDLLHRTAPLLLSYYLIKWGSECLATDVPLDTLESNLQHLSVLELTDSGALMANRFVSSPQTIVELFFQEVARKHIISHLFSQPKAPLSQTGLNWPEMITAITSYLLQLLWPSNPGCLFLECLMGNCQYVQLQDYIQLLHPWCQVNVGSCRFMLGRCYLVTGEGQKALECFCQAASEVGKEEFLDRLIRSEDGEIVSTPRLQYYDKVLRLLDVIGLPELVIQLATSAITEAGDDWKSQATLRTCIFKHHLDLGHNSQAYEALTQIPDSSRQLDCLRQLVVVLCERSQLQDLVEFPYVNLHNEVVGIIESRARAVDLMTHNYYELLYAFHIYRHNYRKAGTVMFEYGMRLGREVRTLRGLEKQGNCYLAALNCLRLIRPEYAWIVQPVSGAVYDRPGASPKRNHDGECTAAPTNRQIEILELEDLEKECSLARIRLTLAQHDPSAVAVAGSSSAEEMVTLLVQAGLFDTAISLCQTFKLPLTPVFEGLAFKCIKLQFGGEAAQAEAWAWLAANQLSSVITTKESSATDEAWRLLSTYLERYKVQNNLYHHCVINKLLSHGVPLPNWLINSYKKVDAAELLRLYLNYDLLEEAVDLVSEYVDAVLGKGHQYFGIEFPLSATAPMVWLPYSSIDQLLQALGENSANSHNIALSQKILDKLEDYQQKVDKATRDLLYRRTL
B2: Nup85 (endogenous) (natural protein)
chain: MEELDGEPTVTLIPGVNSKKNQMYFDWGPGEMLVCETSFNKKEKSEMVPSCPFIYIIRKDVDVYSQILRKLFNESHGIFLGLQRIDEELTGKSRKSQLVRVSKNYRSVIRACMEEMHQVAIAAKDPANGRQFSSQVSILSAMELIWNLCEILFIEVAPAGPLLLHLLDWVRLHVCEVDSLSADVLGSENPSKHDSFWNLVTILVLQGRLDEARQMLSKEADASPASAGICRIMGDLMRTMPILSPGNTQTLTELELKWQHWHEECERYLQDSTFATSPHLESLLKIMLGDEAALLEQKELLSNWYHFLVTRLLYSNPTVKPIDLHYYAQSSLDLFLGGESSPEPLDNILLAAFEFDIHQVIKECSIALSNWWFVAHLTDLLDHCKLLQSHNLYFGSNMREFLLLEYASGLFAHPSLWQLGVDYFDYCPELGRVSLELHIERIPLNTEQKALKVLRICEQRQMTEQVRSICKILAMKAVRNNRLGSALSWSIRAKDAAFATLVSDRFLRDYCERGCFSDLDLIDNLGPAMMLSDRLTFLGKYREFHRMYGEKRFADAASLLLSLMTSRIAPRSFWMTLLTDALPLLEQKQVIFSAEQTYELMRCLEDLTSRRPVHGESDTEQLQDDDIETTKVEMLRLSLARNLARAIIREGSLEGS
B3: Nup93 (endogenous) (natural protein)
chain: MDTEGFGELLQQAEQLAAETEGISELPHVERNLQEIQQAGERLRSRTLTRTSQETADVKASVLLGSRGLDISHISQRLESLSAATTFEPLEPVKDTDIQGFLKNEKDNALLSAIEESRKRTFGMAEEYHRESMLVEWEQVKQRILHTLLASGEDALDFTQESEPSYISDVGPPGRSSLDNIEMAYARQIYIYNEKIVNGHLQPNLVDLCASVAELDDKSISDMWTMVKQMTDVLLTPATDALKNRSSVEVRMEFVRQALAYLEQSYKNYTLVTVFGNLHQAQLGGVPGTYQLVRSFLNIKLPAPLPGLQDGEVEGHPVWALIYYCMRCGDLLAASQVVNRAQHQLGEFKTWFQEYMNSKDRRLSPATENKLRLHYRRALRNNTDPYKRAVYCIIGRCDVTDNQSEVADKTEDYLWLKLNQVCFDDDGTSSPQDRLTLSQFQKQLLEDYGESHFTVNQQPFLYFQVLFLTAQFEAAVAFLFRMERLRCHAVHVALVLFELKLLLKSSGQSAQLLSHEPGDPPCLRRLNFVRLLMLYTRKFESTDPREALQYFYFLRDEKDSQGENMFLRCVSELVIESREFDMILGKLENDGSRKPGVIDKFTSDTKPIINKVASVAENKGLFEEAAKLYDLAKNADKVLELMNKLLSPVVPQISAPQSNKERLKNMALSIAERYRAQGISANKFVDSTFYLLLDLITFFDEYHSGHIDRAFDIIERLKLVPLNQESVEERVAAFRNFSDEIRHNLSEVLLATMNILFTQFKRLKGTSPSSSSRPQRVIEDRDSQLRSQARTLITFAGMIPYRTSGDTNARLVQMEVLMN
B4: Nup62 (endogenous) (natural protein)
chain: MSGFNFGGTGAPTGGFTFGTAKTATTTPATGFSFSTSGTGGFNFGAPFQPATSTPSTGLFSLATQTPATQTTGFTFGTATLASGGTGFSLGIGASKLNLSNTAATPAMANPSGFGLGSSNLTNAISSTVTSSQGTAPTGFVFGPSTTSVAPATTSGGFSFTGGSTAQPSGFNIGSAGNSAQPTAPATLPFTPATPAATTAGATQPAAPTPTATITSTGPSLFASIATAPTSSATTGLSLCTPVTTAGAPTAGTQGFSLKAPGAASGTSTTTSTAATATATTTSSSSTTGFALNLKPLAPAGIPSNTAAAVTAPPGPGAAAGAAASSAMTYAQLESLINKWSLELEDQERHFLQQATQVNAWDRTLIENGEKITSLHREVEKVKLDQKRLDQELDFILSQQKELEDLLSPLEELVKEQSGTIYLQHADEEREKTYKLAENIDAQLKRMAQDLKDIIEHLNTSGAPADTSDPLQQICKILNAHMDSLQWIDQNSALLQRKVEEVTKVCEGRRKEQERSFRITFD
B5: Nup53 (endogenous) (natural protein)
chain: MAAFAVEPQGPALGSEPMMLGSPTSPKPGVNAQFLPGFLMGDLPAPVTPQPRSISGPSVGVMEMRSPLLAGGSPPQPVVPAHKDKSGAPPVRSIYDDISSPGLGSTPLTSRRQPNISVMQSPLVGVTSTPGTGQSMFSPASIGQPRKTTLSPAQLDPFYTQGDSLTSEDHLDDSWVTVFGFPQASASYILLQFAQYGNILKHVMSNTGNWMHIRYQSKLQARKALSKDGRIFGESIMIGVKPCIDKSVMESSDRCALSSPSLAFTPPIKTLGTPTQPGSTPRISTMRPLATAYKASTSDYQVISDRQTPKKDESLVSKAMEYMFGW

Biological target: T1, LacI-CFP-Nup107
Assay: LacI/LacO array recruitment in cells

percent of transfected cells showing colocalization [%]	Binder
39	B1
88	B2
9	B3
24	B4

Biological target: T2, LacI-CFP-Nup133
Assay: LacI/LacO array recruitment in cells

percent of transfected cells showing colocalization [%]	Binder
44	B1
86	B2
20	B5
21	B3
5	B4
